The values that follow come from article PMC8558838 (The Journal of Experimental Medicine, 2021).

The chains are these.
B1: full-length mouse LIGHT, on cells (mLIGHT-IRES-EGFP) [mouse] / full-length WT mouse HVEM-mCherry, on cells [mouse] (parent complex)
chain 1: MESVVQPSVFVVDGQTDIPFRRLEQNHRRRRCGTVQVSLALVLLLGAGLATQGWFLLRLHQRLGDIVAHLPDGGKGSWEKLIQDQRSHQANPAAHLTGANASLIGIGGPLLWETRLGLAFLRGLTYHDGALVTMEPGYYYVYSKVQLSGVGCPQGLANGLPITHGLYKRTSRYPKELELLVSRRSPCGRANSSRVWWDSSFLGGVVHLEAGEEVVVRVPGNRLVRPRDGTRSYFGAFMV
chain 2: QPSCRQEEFLVGDECCPMCNPGYHVKQVCSEHTGTVCAPCPPQTYTAHANGLSKCLPCGVCDPDMGLLTWQECSSWKDTVCRCIPGYFCENQDGSHCSTCLQHTTCPPGQRVEKRGTHDQDTVCADCLTGTFSLGGTQEECLPWTNCSAFQQEVRRGTNSTDTTCSSQVVYYVVSILLPLVIVGAGIAGFLICTRRHLHTSSVAKELEPFQEQQENTIRFPVTEVGFAETEEETASN

The variants in this test derive from B1. Kind of test: flow cytometry, cell–cell method.
For chain 2 QPSCRQEEFLVGDECCPMCNPGYHVKQVCSEHTGDVCAPCPPQTYTAHANGLSKCLPCGVCDPDMGLLTWQECSSWKDTVCRCIPGYFCENQDGSHCSTCLQHTTCPPGQRVEKRGTHDQDTVCADCLTGTFSLGGTQEECLPWTNCSAFQQEVRRGTNSTDTTCSSQVVYYVVSILLPLVIVGAGIAGFLICTRRHLHTSSVAKELEPFQEQQENTIRFPVTEVGFAETEEETASN [chain 2 T35D], the ratio to parent was 0.3.

For chain 2 QPSCRQERFLVGDECCPMCNPGYHVKQVCSEHTGTVCAPCPPQTYTAHANGLSKCLPCGVCDPDMGLLTWQECSSWKDTVCRCIPGYFCENQDGSHCSTCLQHTTCPPGQRVEKRGTHDQDTVCADCLTGTFSLGGTQEECLPWTNCSAFQQEVRRGTNSTDTTCSSQVVYYVVSILLPLVIVGAGIAGFLICTRRHLHTSSVAKELEPFQEQQENTIRFPVTEVGFAETEEETASN [chain 2 E8R], the ratio to parent turned out to be 1. The result for chain 2 QPSCRQEEFLVGDECCPACNPGYHVKQVCSEHTGTVCAPCPPQTYTAHANGLSKCLPCGVCDPDMGLLTWQECSSWKDTVCRCIPGYFCENQDGSHCSTCLQHTTCPPGQRVEKRGTHDQDTVCADCLTGTFSLGGTQEECLPWTNCSAFQQEVRRGTNSTDTTCSSQVVYYVVSILLPLVIVGAGIAGFLICTRRHLHTSSVAKELEPFQEQQENTIRFPVTEVGFAETEEETASN [chain 2 M18A] reads 1.2; that for chain 2 QPSCRQEEFLVGDECCPMCNPGYHVKQVCSEHTGTVCAPCPPQTYTAHAAGLSKCLPCGVCDPDMGLLTWQECSSWKDTVCRCIPGYFCENQDGSHCSTCLQHTTCPPGQRVEKRGTHDQDTVCADCLTGTFSLGGTQEECLPWTNCSAFQQEVRRGTNSTDTTCSSQVVYYVVSILLPLVIVGAGIAGFLICTRRHLHTSSVAKELEPFQEQQENTIRFPVTEVGFAETEEETASN [chain 2 N50A], 0.5. Take chain 2 QPSCRQEEFLVGDECCPMCNPGYHVKQVCSEHTATVCAPCPPQTYTAHANGLSKCLPCGVCDPDMGLLTWQECSSWKDTVCRCIPGYFCENQDGSHCSTCLQHTTCPPGQRVEKRGTHDQDTVCADCLTGTFSLGGTQEECLPWTNCSAFQQEVRRGTNSTDTTCSSQVVYYVVSILLPLVIVGAGIAGFLICTRRHLHTSSVAKELEPFQEQQENTIRFPVTEVGFAETEEETASN [chain 2 G34A]: the ratio to parent was determined as 1.2. For chain 2 QPSCDQEEFLVGDECCPMCNPGYHVKQVCSEHTGTVCAPCPPQTYTAHANGLSKCLPCGVCDPDMGLLTWQECSSWKDTVCRCIPGYFCENQDGSHCSTCLQHTTCPPGQRVEKRGTHDQDTVCADCLTGTFSLGGTQEECLPWTNCSAFQQEVRRGTNSTDTTCSSQVVYYVVSILLPLVIVGAGIAGFLICTRRHLHTSSVAKELEPFQEQQENTIRFPVTEVGFAETEEETASN [chain 2 R5D] the value was 1.1; for chain 2 QPSCRQEEFLVGDECCPMCNPGYHVKQVCSEHTGTVCAPCPPQTYTAHANGLSKCAPCGVCDPDMGLLTWQECSSWKDTVCRCIPGYFCENQDGSHCSTCLQHTTCPPGQRVEKRGTHDQDTVCADCLTGTFSLGGTQEECLPWTNCSAFQQEVRRGTNSTDTTCSSQVVYYVVSILLPLVIVGAGIAGFLICTRRHLHTSSVAKELEPFQEQQENTIRFPVTEVGFAETEEETASN [chain 2 L56A], 0.8; for chain 2 QPSCRQEEFLVGDECCPMCNPGYHVDQVCSEHTGTVCAPCPPQTYTAHANGLSKCLPCGVCDPDMGLLTWQECSSWKDTVCRCIPGYFCENQDGSHCSTCLQHTTCPPGQRVEKRGTHDQDTVCADCLTGTFSLGGTQEECLPWTNCSAFQQEVRRGTNSTDTTCSSQVVYYVVSILLPLVIVGAGIAGFLICTRRHLHTSSVAKELEPFQEQQENTIRFPVTEVGFAETEEETASN [chain 2 K26D], 1.1. The result for chain 2 QPSCRQEEFLVGDECCPMCNPGYHVKQVCSEHTGTVCAPCPPQTYTAHANGLSKCLPCGVCDPDMGLLTWQECSSWADTVCRCIPGYFCENQDGSHCSTCLQHTTCPPGQRVEKRGTHDQDTVCADCLTGTFSLGGTQEECLPWTNCSAFQQEVRRGTNSTDTTCSSQVVYYVVSILLPLVIVGAGIAGFLICTRRHLHTSSVAKELEPFQEQQENTIRFPVTEVGFAETEEETASN [chain 2 K77A] reads 1.8; that for chain 2 QPSCRQEEFLVGDECCPMCNPGYHVKQVCSEHTGTVCAPCPPQTYTAHANGLSKCLPCGVCDPDMGLLTWQECSSWDDTVCRCIPGYFCENQDGSHCSTCLQHTTCPPGQRVEKRGTHDQDTVCADCLTGTFSLGGTQEECLPWTNCSAFQQEVRRGTNSTDTTCSSQVVYYVVSILLPLVIVGAGIAGFLICTRRHLHTSSVAKELEPFQEQQENTIRFPVTEVGFAETEEETASN [chain 2 K77D], 1.4. The result for chain 2 QPSCRQEEFLVGDECCPMCNPGYHVKQVCSEHTGTVCAPCPPQTYTAHANGLSKCLPCGVCDPDMGLLTWQECSSWKDTVCRCIPGYFCENQDGSHCDTCLQHTTCPPGQRVEKRGTHDQDTVCADCLTGTFSLGGTQEECLPWTNCSAFQQEVRRGTNSTDTTCSSQVVYYVVSILLPLVIVGAGIAGFLICTRRHLHTSSVAKELEPFQEQQENTIRFPVTEVGFAETEEETASN [chain 2 S98D] reads 0.8.
